Eleven variants from IntAct's records for PubMed 31515488 can be followed below.

To fix the notation:
B1: Spermatogenic leucine zipper protein 1 (Homo sapiens), Q9BXG8 (parent)
chain: MASSAKSAEMPTISKTVNPTPDPHQEYLDPRITIALFEIGSHSPSSWGSLPFLKNSSHQVTEQQTAQKFNNLLKEIKDILKNMAGFEEKITEAKELFEETNITEDVSAHKENIRGLDKINEMLSTNLPVSLAPEKEDNEKKQEMILETNITEDVSAHKENIRGLDKINEMLSTNLPVSLAPEKEDNEKKQQMIMENQNSENTAQVFARDLVNRLEEKKVLNETQQSQEKAKNRLNVQEETMKIRNNMEQLLQEAEHWSKQHTELSKLIKSYQKSQKDISETLGNNGVGFQTQPNNEVSAKHELEEQVKKLSHDTYSLQLMAALLENECQILQQRVEILKELHHQKQGTLQEKPIQINYKQDKKNQKPSEAKKVEMYKQNKQAMKGTFWKKDRSCRSLDVCLNKKACNTQFNIHVARKALRGKMRSASSLR
partner: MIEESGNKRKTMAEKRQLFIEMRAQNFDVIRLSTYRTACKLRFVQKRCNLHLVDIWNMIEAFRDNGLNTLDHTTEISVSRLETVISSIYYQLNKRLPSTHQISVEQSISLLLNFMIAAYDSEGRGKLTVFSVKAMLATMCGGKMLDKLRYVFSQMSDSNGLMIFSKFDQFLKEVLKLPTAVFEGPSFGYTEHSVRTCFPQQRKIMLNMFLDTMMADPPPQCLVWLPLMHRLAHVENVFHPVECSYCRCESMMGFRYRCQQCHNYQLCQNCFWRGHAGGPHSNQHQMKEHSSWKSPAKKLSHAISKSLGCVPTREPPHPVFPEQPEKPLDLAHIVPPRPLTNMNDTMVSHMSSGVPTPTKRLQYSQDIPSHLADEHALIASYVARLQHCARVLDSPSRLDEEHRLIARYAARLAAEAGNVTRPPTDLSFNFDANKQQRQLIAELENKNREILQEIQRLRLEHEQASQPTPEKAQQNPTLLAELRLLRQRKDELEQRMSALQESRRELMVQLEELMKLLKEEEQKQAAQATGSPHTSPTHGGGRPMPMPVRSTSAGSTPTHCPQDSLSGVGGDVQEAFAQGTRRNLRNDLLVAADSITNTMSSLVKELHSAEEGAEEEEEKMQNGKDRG
B2: Notch homolog 2 N-terminal-like protein A (Homo sapiens), Q7Z3S9 (parent)
chain: MCVTYHNGTGYCKCPEGFLGEYCQHRDPCEKNRCQNGGTCVAQAMLGKATCRCASGFTGEDCQYSTSHPCFVSRPCLNGGTCHMLSRDTYECTCQVGFTGKECQWTDACLSHPCANGSTCTTVANQFSCKCLTGFTGQKCETDVNECDIPGHCQHGGTCLNLPGSYQCQCLQGFTGQYCDSLYVPCAPSPCVNGGTCRQTGDFTFECNCLPETVRRGTELWERDREVWNGKEHDEN
partner: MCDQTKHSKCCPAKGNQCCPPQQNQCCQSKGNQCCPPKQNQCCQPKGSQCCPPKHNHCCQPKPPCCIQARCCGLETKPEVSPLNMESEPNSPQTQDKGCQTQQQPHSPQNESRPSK
B3: Medium-chain acyl-CoA ligase ACSF2, mitochondrial (Homo sapiens), Q96CM8 (parent)
chain: MAVYVGMLRLGRLCAGSSGVLGARAALSRSWQEARLQGVRFLSSREVDRMVSTPIGGLSYVQGCTKKHLNSKTVGQCLETTAQRVPEREALVVLHEDVRLTFAQLKEEVDKAASGLLSIGLCKGDRLGMWGPNSYAWVLMQLATAQAGIILVSVNPAYQAMELEYVLKKVGCKALVFPKQFKTQQYYNVLKQICPEVENAQPGALKSQRLPDLTTVISVDAPLPGTLLLDEVVAAGSTRQHLDQLQYNQQFLSCHDPINIQFTSGTTGSPKGATLSHYNIVNNSNILGERLKLHEKTPEQLRMILPNPLYHCLGSVAGTMMCLMYGATLILASPIFNGKKALEAISRERGTFLYGTPTMFVDILNQPDFSSYDISTMCGGVIAGSPAPPELIRAIINKINMKDLVVAYGTTENSPVTFAHFPEDTVEQKAESVGRIMPHTEARIMNMEAGTLAKLNTPGELCIRGYCVMLGYWGEPQKTEEAVDQDKWYWTGDVATMNEQGFCKIVGRSKDMIIRGGENIYPAELEDFFHTHPKVQEVQVVGVKDDRMGEEICACIRLKDGEETTVEEIKAFCKGKISHFKIPKYIVFVTNYPLTISGKIQKFKLREQMERHLNL
partner: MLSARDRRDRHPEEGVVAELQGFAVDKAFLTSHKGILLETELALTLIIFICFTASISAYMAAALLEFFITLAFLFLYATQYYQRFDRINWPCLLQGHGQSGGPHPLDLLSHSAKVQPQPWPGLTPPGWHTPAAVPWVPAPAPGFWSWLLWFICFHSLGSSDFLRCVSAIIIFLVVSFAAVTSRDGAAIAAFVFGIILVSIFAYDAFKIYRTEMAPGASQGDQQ
B4: X-linked retinitis pigmentosa GTPase regulator (Homo sapiens), Q92834 (parent)
chain: MREPEELMPDSGAVFTFGKSKFAENNPGKFWFKNDVPVHLSCGDEHSAVVTGNNKLYMFGSNNWGQLGLGSKSAISKPTCVKALKPEKVKLAACGRNHTLVSTEGGNVYATGGNNEGQLGLGDTEERNTFHVISFFTSEHKIKQLSAGSNTSAALTEDGRLFMWGDNSEGQIGLKNVSNVCVPQQVTIGKPVSWISCGYYHSAFVTTDGELYVFGEPENGKLGLPNQLLGNHRTPQLVSEIPEKVIQVACGGEHTVVLTENAVYTFGLGQFGQLGLGTFLFETSEPKVIENIRDQTISYISCGENHTALITDIGLMYTFGDGRHGKLGLGLENFTNHFIPTLCSNFLRFIVKLVACGGCHMVVFAAPHRGVAKEIEFDEINDTCLSVATFLPYSSLTSGNVLQRTLSARMRRRERERSPDSFSMRRTLPPIEGTLGLSACFLPNSVFPRCSERNLQESVLSEQDLMQPEEPDYLLDEMTKEAEIDNSSTVESLGETTDILNMTHIMSLNSNEKSLKLSPVQKQKKQQTIGELTQDTALTENDDSDEYEEMSEMKEGKACKQHVSQGIFMTQPATTIEAFSDEEVGNDTGQVGPQADTDGEGLQKEVYRHENNNGVDQLDAKEIEKESDGGHSQKESEAEEIDSEKETKLAEIAGMKDLREREKSTKKMSPFFGNLPDRGMNTESEENKDFVKKRESCKQDVIFDSERESVEKPDSYMEGASESQQGIADGFQQPEAIEFSSGEKEDDEVETDQNIRYGRKLIEQGNEKETKPIISKSMAKYDFKCDRLSEIPEEKEGAEDSKGNGIEEQEVEANEENVKVHGGRKEKTEILSDDLTDKAEDHEFSKTEELKLEDVDEEINAENVESKKKTVGDDESVPTGYHSKTEGAERTNDDSSAETIEKKEKANLEERAICEYNENPKGYMLDDADSSSLEILENSETTPSKDMKKTKKIFLFKRVPSINQKIVKNNNEPLPEIKSIGDQIILKSDNKDADQNHMSQNHQNIPPTNTERRSKSCTIL
partner: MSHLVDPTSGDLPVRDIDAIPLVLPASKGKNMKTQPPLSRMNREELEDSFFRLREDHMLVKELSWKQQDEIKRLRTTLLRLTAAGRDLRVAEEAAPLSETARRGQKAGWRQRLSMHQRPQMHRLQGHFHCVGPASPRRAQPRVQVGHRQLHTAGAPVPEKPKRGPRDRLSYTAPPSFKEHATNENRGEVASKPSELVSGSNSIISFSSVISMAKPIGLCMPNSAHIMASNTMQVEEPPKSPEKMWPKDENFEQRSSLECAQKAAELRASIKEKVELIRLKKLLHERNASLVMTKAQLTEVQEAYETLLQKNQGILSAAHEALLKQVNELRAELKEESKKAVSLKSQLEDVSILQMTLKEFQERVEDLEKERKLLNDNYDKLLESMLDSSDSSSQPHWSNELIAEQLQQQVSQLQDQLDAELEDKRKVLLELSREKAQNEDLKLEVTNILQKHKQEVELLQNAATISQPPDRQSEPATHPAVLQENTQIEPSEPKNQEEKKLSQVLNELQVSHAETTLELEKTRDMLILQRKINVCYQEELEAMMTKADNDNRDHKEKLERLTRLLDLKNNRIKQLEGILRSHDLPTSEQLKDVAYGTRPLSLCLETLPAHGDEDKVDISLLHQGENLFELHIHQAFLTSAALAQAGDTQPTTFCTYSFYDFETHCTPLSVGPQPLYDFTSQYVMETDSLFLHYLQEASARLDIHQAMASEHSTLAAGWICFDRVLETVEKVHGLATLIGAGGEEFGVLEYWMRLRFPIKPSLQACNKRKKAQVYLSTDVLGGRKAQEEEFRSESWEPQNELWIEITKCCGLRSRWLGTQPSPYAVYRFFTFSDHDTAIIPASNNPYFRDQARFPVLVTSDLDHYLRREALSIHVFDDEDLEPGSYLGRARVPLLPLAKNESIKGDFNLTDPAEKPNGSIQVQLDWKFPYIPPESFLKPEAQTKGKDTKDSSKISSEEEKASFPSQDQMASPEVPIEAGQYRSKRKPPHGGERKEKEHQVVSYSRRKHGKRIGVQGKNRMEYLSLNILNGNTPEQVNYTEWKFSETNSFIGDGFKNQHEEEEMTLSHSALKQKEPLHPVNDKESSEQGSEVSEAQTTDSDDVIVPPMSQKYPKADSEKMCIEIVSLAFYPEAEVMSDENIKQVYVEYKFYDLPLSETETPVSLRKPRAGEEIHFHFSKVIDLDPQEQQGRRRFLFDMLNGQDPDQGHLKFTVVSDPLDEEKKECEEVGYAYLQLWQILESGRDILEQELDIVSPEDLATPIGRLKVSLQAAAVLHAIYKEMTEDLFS

The variants in one assay derive from B1. Conditions: with dtnb_human DTNB.
H301P: the “effect of a mutation on the interaction” value is listed as “with no effect”.

As for E9K, the “effect of a mutation on the interaction” value is “with no effect”.

Variants of B2 are the subject of a further assay. Conditions: with mcsp_human SMCP.
As for A115T, the “effect of a mutation on the interaction” value is recorded as “with no effect”.

On to R74Q, for which the “effect of a mutation on the interaction” value was “with no effect”.

The variants in the next assay derive from B3. The conditions noted are these: with cklf5_human CMTM5, Q96DZ9.
Take A34V: the “effect of a mutation on the interaction” value is listed as “disrupting interaction strength”. Same read-out and setting: as for G19W, the entry is “disrupting interaction strength”.

In a further assay the parent is B4. Conditions: with rpgr1_human RPGRIP1, Q96KN7.
Regarding R425K, the “effect of a mutation on the interaction” value is “with no effect”.

As for Q184H, the “effect of a mutation on the interaction” value is recorded as “with no effect”. Consider I431V, for which the “effect of a mutation on the interaction” value is “with no effect”.

For Q456R, the “effect of a mutation on the interaction” value is given as “with no effect”. Still for that read-out and setting: the result for I75V reads “with no effect”.
